Experimental data reported in US20200165345A1 (GlaxoSmithKline, published 2020).

B1: 1G11 (antibody, V domains shown)
VH: QVQLQQSGDDLVKPGASVKLSCKASGYTFTSYYINWIKQRPGQGLECIGRIAPGNTYYNEIFKGKAILTVDTSSSTAYIQLSSLSSEDSGVYFCARRGYEGALDYWGQGTSVTVSS
VL: DIVLTQSPATLSVTPGDSVSLSCRASQRISNNLHWYQQKSHESPRLLIKYVSQSISGIPSRFSGSGSGTDFTLSINSVETEDFGMYFCQQSNSWPLTFGAGTKLELKR
B2: Humanised 1G11 (antibody, human IgG1, kappa, V domains shown)
VH: QVQLVQSGAEVKKPGSSVKVSCKASGYTFTSYYINWVRQAPGQGLESMGRIAPGNTYYNEIFKGRVTITADKSTSTAYMELSSLRSEDTAVYYCARRGYEGALDYWGQGTLVTVSS
VL: EIVLTQSPATLSLSPGERATLSCRASQRISNNLHWYQQKPGQAPRLLIKYVSQSISGIPARFSGSGSGTDFTLTISSLEPEDFAVYYCQQSNSWPLTFGQGTKLEIKR
notes: Straight graft of 1G11 CDRs with serine at Kabat position 47 of the heavy chain (H7, Lo1); human IgG1 Fc with L235A and G237A (EU numbering), Fc-disabled; also called humanised 1G11 (H7, Lo1); copies: 2 + 2
B3: 8E5 (antibody, mouse IgG1, kappa, V domains shown)
VH: EVQLVESGGDLVKPGGSLKLSCAASGFTFSTYGMSWVRQTPDKGLEWVATVSTGGTYTYYPDSVKGRFTISRDNAKNTLYLQMSSLKSEDTAMYYCARGGYSFAYWGQGTLVTVSA
VL: ENVLTQSPAIMSASPGEKVTMTCRASSSVSSSYLHWYQQKSGVSPKLWIYSTSNLASGVPARFSGSGSGTSYSLTISSVEAEDAATYYCQQYSGYPLTFGAGTKLELKR
B4: 3A3 (antibody, mouse IgG1, kappa, V domains shown)
VH: QVQLQQSGAELAKPGASVKMSCKASGYTFSSYWMHWVKQRPGQGLEWIGYINPSTGYTDYNQKFKDKATLTADKSSNTAYMQLSSLTSDDSAVYYCARSRAARYWGQGTTLTVSS
VL: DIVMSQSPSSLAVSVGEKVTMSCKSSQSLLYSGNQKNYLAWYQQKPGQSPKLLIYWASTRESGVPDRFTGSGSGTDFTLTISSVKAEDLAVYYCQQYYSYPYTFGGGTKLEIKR

How the values were obtained:
[1] = biological target: T1, human full-length TrkB receptor (human, UniProt Q16620 32-822); assay: cell-based or functional assay
[2] = biological target: T1, human full-length TrkB receptor; assay: cell-based or functional assay; remark: listed apart in the source
[3] = biological target: T1, human full-length TrkB receptor; assay: cell-based or functional assay; remark: listed apart in the source
rat TrkB receptor = biological target: T2, rat TrkB receptor (rat, UniProt Q63604 32-821); assay: method not detailed
T2 construct: whole, on cells; also called rodent TrkB

mouse TrkB receptor = biological target: T3, mouse TrkB receptor (mouse, UniProt P15209 32-821); assay: method not detailed
T3 construct: whole, on cells; also called murine TrkB; rodent TrkB
T3 sequence (P15209 32-821): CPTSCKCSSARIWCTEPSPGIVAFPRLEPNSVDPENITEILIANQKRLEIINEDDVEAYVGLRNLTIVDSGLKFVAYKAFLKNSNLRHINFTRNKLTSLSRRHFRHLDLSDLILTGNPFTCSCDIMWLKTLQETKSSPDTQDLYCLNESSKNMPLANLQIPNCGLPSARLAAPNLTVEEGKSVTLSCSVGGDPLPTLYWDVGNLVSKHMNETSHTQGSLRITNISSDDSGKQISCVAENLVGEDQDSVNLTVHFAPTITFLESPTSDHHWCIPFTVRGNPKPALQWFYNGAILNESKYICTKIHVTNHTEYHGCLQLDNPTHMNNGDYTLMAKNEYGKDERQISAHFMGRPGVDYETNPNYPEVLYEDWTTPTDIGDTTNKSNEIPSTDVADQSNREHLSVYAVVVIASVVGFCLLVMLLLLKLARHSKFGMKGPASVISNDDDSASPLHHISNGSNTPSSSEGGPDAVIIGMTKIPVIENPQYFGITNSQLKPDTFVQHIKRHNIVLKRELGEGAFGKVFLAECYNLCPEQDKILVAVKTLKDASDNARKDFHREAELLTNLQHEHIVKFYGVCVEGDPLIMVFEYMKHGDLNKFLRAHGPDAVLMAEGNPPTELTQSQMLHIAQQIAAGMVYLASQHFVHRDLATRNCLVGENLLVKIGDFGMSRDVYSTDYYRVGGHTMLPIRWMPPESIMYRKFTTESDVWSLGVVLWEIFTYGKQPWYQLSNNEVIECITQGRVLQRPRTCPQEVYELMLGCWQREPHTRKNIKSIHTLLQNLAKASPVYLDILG

T1 sequence (Q16620 32-822 limits assumed): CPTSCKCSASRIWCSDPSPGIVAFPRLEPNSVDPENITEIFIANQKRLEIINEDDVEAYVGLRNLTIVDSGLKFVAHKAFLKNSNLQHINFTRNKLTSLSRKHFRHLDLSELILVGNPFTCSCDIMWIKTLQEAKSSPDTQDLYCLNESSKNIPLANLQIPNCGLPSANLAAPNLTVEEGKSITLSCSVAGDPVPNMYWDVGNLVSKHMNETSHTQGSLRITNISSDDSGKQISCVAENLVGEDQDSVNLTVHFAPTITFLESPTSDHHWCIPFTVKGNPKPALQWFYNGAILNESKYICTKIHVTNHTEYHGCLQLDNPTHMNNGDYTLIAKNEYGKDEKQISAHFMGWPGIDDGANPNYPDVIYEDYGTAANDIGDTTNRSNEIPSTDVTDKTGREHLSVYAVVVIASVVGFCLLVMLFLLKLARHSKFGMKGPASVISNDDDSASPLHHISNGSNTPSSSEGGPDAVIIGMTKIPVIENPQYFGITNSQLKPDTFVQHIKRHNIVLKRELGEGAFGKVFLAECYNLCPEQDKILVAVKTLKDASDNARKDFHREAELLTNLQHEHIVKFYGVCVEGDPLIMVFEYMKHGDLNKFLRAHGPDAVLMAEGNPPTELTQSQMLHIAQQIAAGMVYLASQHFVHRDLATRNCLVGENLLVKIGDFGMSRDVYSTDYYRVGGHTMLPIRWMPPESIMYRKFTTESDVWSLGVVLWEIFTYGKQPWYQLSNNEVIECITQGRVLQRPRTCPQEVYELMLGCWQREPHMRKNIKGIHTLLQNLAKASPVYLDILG
T2 sequence (Q63604 32-821): as the sequence (P15209 32-821) above, with T3M, S9T, A10T, V32I, R63K, S84G, M153T, L185I, S394T, S770N counted along it

| Binder | Activation of TrkB (pTrkB, Y515), EC50 [1] [nM] | Potentiation of BDNF-induced agonism of TrkB (pTrkB, % of BDNF alone) [1] [%] | EC50 (read off the curve); pTrkB relative activity in the presence of 10 nM BDNF [2] [nM] | levels of phosphorylated TrkB in CHO-K1 cells, EC50 [3] [nM] | binding result (rat TrkB receptor) | binding result (mouse TrkB receptor) | cell survival, PC12 cells expressing human TrkB, EC50 [3] [nM] | neurite outgrowth, PC12 cells expressing human TrkB, EC50 [3] [nM] |
| --- | --- | --- | --- | --- | --- | --- | --- | --- |
| B1 | 3.1 | ~130 | ~10 |  |  |  |  |  |
| B2 |  |  |  | 0.65 | binds | binds |  |  |
| B3 |  | ~120 |  |  |  |  | 0.09 | 1.58 |
| B4 |  | ~160 | ~0.7 |  |  |  | 0.006 |  |
